# Experimental data from PMC2903362 (The Journal of Biological Chemistry, 2010).
# Legend:
# [1] = target: T1, FlK (fluoroacetyl-CoA thioesterase; WtFlK) (Streptantibioticus cattleyicolor, UniProt Q1EMV2); assay: X-ray crystal structure of complex; format: binding; details: 10 mM FAcCPan, 100 mM CHES pH 9.5, 0.8 M trisodium citrate; active site
# T1 sequence (Q1EMV2 1-139): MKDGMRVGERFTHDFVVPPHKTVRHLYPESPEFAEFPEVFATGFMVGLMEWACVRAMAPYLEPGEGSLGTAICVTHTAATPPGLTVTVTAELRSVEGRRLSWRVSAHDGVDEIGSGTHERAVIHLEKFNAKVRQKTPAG
# SEC = target: the molecule itself; assay: SEC
# crystal structure [2] = target: the molecule itself; assay: crystal structure
# crystal structure [3] = target: the molecule itself; assay: crystal structure; remark: listed apart in the source
Molecule,X-ray crystal structure of complex [1],stoichiometry N (SEC),stoichiometry N (crystal structure [2]),stoichiometry N (crystal structure [3])
CC(C)(CO)[C@@H](O)C(=O)NCCC(=O)NCCCC(=O)CF [FAcCPan],"WtFlK in complex with two analogues of fluoroacetyl-pantetheine, FAcCPan, and FAcOPan",,,
"wild-type FlK (fluoroacetyl-CoA thioesterase FlK) (enzyme, Streptomyces cattleya) MKDGMRVGERFTHDFVVPPHKTVRHLYPESPEFAEFPEVFATGFMVGLMEWACVRAMAPYLEPGEGSLGTAICVTHTAATPPGLTVTVTAELRSVEGRRLSWRVSAHDGVDEIGSGTHERAVIHLEKFNAKVRQKTPAG",,2,4,
"FlK E50A mutant (enzyme, Streptomyces cattleya) MKDGMRVGERFTHDFVVPPHKTVRHLYPESPEFAEFPEVFATGFMVGLMAWACVRAMAPYLEPGEGSLGTAICVTHTAATPPGLTVTVTAELRSVEGRRLSWRVSAHDGVDEIGSGTHERAVIHLEKFNAKVRQKTPAG",,2,,
"FlK T42A mutant (enzyme, Streptomyces cattleya) MKDGMRVGERFTHDFVVPPHKTVRHLYPESPEFAEFPEVFAAGFMVGLMEWACVRAMAPYLEPGEGSLGTAICVTHTAATPPGLTVTVTAELRSVEGRRLSWRVSAHDGVDEIGSGTHERAVIHLEKFNAKVRQKTPAG",,2,,4
"FlK T42S mutant (enzyme, Streptomyces cattleya) MKDGMRVGERFTHDFVVPPHKTVRHLYPESPEFAEFPEVFASGFMVGLMEWACVRAMAPYLEPGEGSLGTAICVTHTAATPPGLTVTVTAELRSVEGRRLSWRVSAHDGVDEIGSGTHERAVIHLEKFNAKVRQKTPAG",,2,,4
"selenomethionine-labelled wild-type FlK (enzyme, Streptomyces cattleya, L-selenomethionine incorporated) MKDGMRVGERFTHDFVVPPHKTVRHLYPESPEFAEFPEVFATGFMVGLMEWACVRAMAPYLEPGEGSLGTAICVTHTAATPPGLTVTVTAELRSVEGRRLSWRVSAHDGVDEIGSGTHERAVIHLEKFNAKVRQKTPAG",,,,2
